Experimental findings from patent US20200385482A1 are described below.

The chains are these.
B1: Ab-52 (antibody, V domains shown)
VH: QVQLQESGGGVVQPGRSLRLSCSASGFTFSRHGMHWVRQAPGKGLEWVAVISHDGSVKYYADSMKGRFSISRDNSNNTLYLQMDSLRADDTAVYYCARGLSYQVSGWFDPWGQGTLVTVSS
VL: NFMLTQPHSVSESPGKTVTISCTRSSGSIASNYVQWYQQRPGSAPTTVIYEDNQRPSGVPDRFSGSIDSSSNSASLTISGLKTEDEADYYCQSYDSTTPSVFGGGTKLTVL
B2: Ab-16 (antibody, V domains shown)
VH: EVQLVQSGGGVVQPGRSLRLSCAASGFTFSSYALSWVRQAPGKGLEWVSAISGGGGSTYYADSVKGRFTISRDNSKNTLYLQMNSLRAEDTAVYYCAKDVFPETFSMNYGMDVWGQGTLVTVSS
VL: SSELTQDPAVSVALGQTVRITCQGDSLRSYYASWYQQKPGQAPVLVIYGKNNRPSGIPDRFSGSSSGNTASLTITGAQAEDEADYYCNSRDSSGNHYVFGTGTKVTVL
B3: Ab-31 (antibody, V domains shown)
VH: QVQLVQSGAEVKKPGATVKVSCKVFGDTFRGLYIHWVRQAPGQGLEWMGGIIPIFGTANYAQKFQGRVTITTDESTSTAYMELSSLRSEDTAVYYCASGLRWGIWGWFDPWGQGTLVTVSS
VL: EIVLTQSPATLSLSPGERATLSCRASQSIGNSLAWYQQKPGQAPRLLMYGASSRATGIPDRFSGSGAGTDFTLTISSLEPEDFATYYCQQHTIPTFSFGPGTKVEVK

One experiment deals with human C-type lectin domain family 2 member (hCLEC2D) expressed on transfected 300.19 cells (human) (UniProt Q9UHP7). Put plainly: FACS, hCLEC2D 300.19 cells, assay 1, Ab 0.1 ug/ml.
human C-type lectin domain family 2 member (hCLEC2D) expressed on transfected 300.19 cells (human), sequence (Q9UHP7 whole entry, the tested form may be a part): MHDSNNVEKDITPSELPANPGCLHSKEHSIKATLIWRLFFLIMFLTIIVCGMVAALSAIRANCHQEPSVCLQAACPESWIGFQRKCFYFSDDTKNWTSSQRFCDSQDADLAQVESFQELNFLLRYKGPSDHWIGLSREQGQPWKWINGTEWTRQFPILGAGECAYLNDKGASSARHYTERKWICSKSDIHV
B1 gave a Cells PE-A Mean of 298 MFI.
Still for that read-out and setting: with B2 the figure was 294 MFI; with B3, 360 MFI.

Another experiment shares this target. Put plainly: FACS, hCLEC2D 300.19 cells, assay 2, Ab approx 10 ug/ml. (In general: In flow cytometry, cells or beads pass a laser one at a time.)
In turn, B1 showed a Cells PE-A Mean of 3140 MFI.
B2 came in with a Cells PE-A Mean of 2370 MFI.
The molecule B3 had a Cells PE-A Mean of 2950 MFI.

A further experiment has the same target. Put plainly: FACS, hCLEC2D 300.19 cells, assay 2, Ab 0.01 ug/ml.
B1 returned a Cells PE-A Mean of 166 MFI.
For the molecule B2, the Cells PE-A Mean came out at 154 MFI.
The molecule B3 registered a Cells PE-A Mean of 153 MFI.

For a further experiment the target is unchanged. Put plainly: FACS, hCLEC2D 300.19 cells, assay 2, Ab 0.1 ug/ml.
In turn, B1 registered a Cells PE-A Mean of 298 MFI.
Still for that read-out and setting: with B2 the figure was 294 MFI; with B3, 360 MFI.

The next experiment has the same target. Put plainly: FACS, hCLEC2D 300.19 cells, assay 1, Ab 1 ug/ml.
Molecule B1 came in with a Cells PE-A Mean of 1100 MFI.
On to B2, for which the Cells PE-A Mean was 898 MFI.
As to B3, the Cells PE-A Mean was 870 MFI.

Another experiment shares this target. Put plainly: FACS, hCLEC2D 300.19 cells, assay 2, Ab 1 ug/ml.
The molecule B1 yielded a Cells PE-A Mean of 1100 MFI.
Molecule B2 returned a Cells PE-A Mean of 898 MFI.
B3 yielded a Cells PE-A Mean of 870 MFI.

The target is the same in the next experiment. Put plainly: FACS, hCLEC2D 300.19 cells, assay 1, Ab approx 10 ug/ml.
As to B1, the Cells PE-A Mean amounted to 3140 MFI.
On the same count and under the same terms, with B2 the figure was 2370 MFI.
For the molecule B3, the Cells PE-A Mean was found to be 2950 MFI.

For a further experiment the target is unchanged. Put plainly: FACS, hCLEC2D 300.19 cells, assay 1, Ab 0.01 ug/ml.
B1 had a Cells PE-A Mean of 166 MFI.
Regarding B2, the Cells PE-A Mean stood at 154 MFI.
With B3, the Cells PE-A Mean amounted to 153 MFI.
